According to patent US7049398B1, “Melanocortin metallopeptide constructs, combinatorial libraries and applications” (Palatin Technologies, Inc., priority 1999, dated 2006):
Primed or numbered codes have the meaning given here. Where no end group is shown, it is not given here. [ ]: non-standard residue; d: D form. The star is where a group is joined. 2Nal = N[C@@H](Cc1ccc2ccccc2c1)C(=O)O; Hydrocinnamoyl = O=C(CCc1ccccc1)*; Tic = O=C(O)[C@@H]1Cc2ccccc2CN1; Aic = NC1(C(=O)O)Cc2ccccc2C1; 4Abz = Nc1ccc(C(=O)O)cc1; Ac6c = NC1(C(=O)O)CCCCC1; Heptanoyl = CCCCCCC(=O)*; Nle = CCCC[C@H](N)C(=O)O; 2Abz = Nc1ccccc1C(=O)O; Bz′ = not defined here; Ac3c = NC1(C(=O)O)CC1; Inp = O=C(O)C1CCNCC1

How the values were obtained:
hMC4-R = biological target: T1, hMC4-R (Homo sapiens, UniProt P32245); assay: Competitive inhibition binding assay, 125I-NDP-alpha-MSH, hMC4-R membranes; details: 0.4 nM 125I-NDP-alpha-MSH
T1 construct: expressed in transfected cells; host or cells: 293 cells
Procedure: (§1) Representative Peptides of this Invention. Representative peptides of this invention were made using library and synthesis methods described herein, and selected peptides were tested using a binding assay. […] The peptides were synthesized using conventional peptide synthesis methods, and were complexed with rhenium using the methods described herein.
(§2) The competitive inhibition binding assay was conducted using membranes prepared from hMC4-R and B-16 mouse melanoma cells (containing MC1-R) using 0.4 nM ^125I-NDP-alpha-MSH (New England Nuclear, Boston, Mass., USA) in 50 mM HEPES buffer containing 1 mM MgCl2, 2 mM CaCl2, and 5 mM KCl, at pH 7.2. The assay tube also contained a chosen concentration of the test peptide of this invention, complexed to a rhenium metal ion as indicated, for determining its efficacy in inhibiting the binding of ^125I-NDP-alpha-MSH to its receptor. Non-specific binding was measured by complete inhibition of binding of ^125I-NDP-alpha-MSH in the assay with the presence of 1 μM alpha-MSH. Incubation was for 90 minutes at room temperature, after which the assay mixture was filtered and the membranes washed three times with ice cold buffer. The filter was dried and counted in a gamma counter for remaining radioactivity bound to the membranes. 100% specific binding was defined as the difference in radioactivity (cpm) bound to cell membranes in the absence and presence of 1 μM alpha-MSH. The cpm obtained in presence of test compounds were normalized with respect to 100% specific binding to determine the percent inhibition of ^125I-NDP-alpha MSH binding. […]

[1] = tested on: Human MC4-R or B-16 cells; assay: cAMP stimulation assay in absence and presence of alpha-MSH; type: cell-based, human; mouse; details: 1 h 37° C., 0.2 mM IBMX
Procedure: For selected peptides of this invention, a cAMP assay was also performed. Human MC4-R or B-16 cells were grown to confluence in 96 well plates (plating approximately 250,000 cells per well). Identical sets of cells in triplicate were treated with 0.2 mM isobutylmethylxanthine (IBMX) and the chosen concentration of the rhenium metal ion-complexed peptide and the rhenium metal ion-complexed peptide in the presence of 20 nM alpha-MSH. Cells similarly treated but with only 20 nM alpha-MSH served as positive control. A buffer blank, as a negative control, was also included. Incubation was for one hour at 37° C. after which the medium was aspirated and the cells extarted with 150 microliters of HCl. Total cAMP accumulated in 100 microliters of this solution was quantitated using a commercially available low pH cAMP assay kit (R&D Systems) by the procedure specified by the kit supplier. […] The rhenium metal ion-complexed peptide showing cAMP accumulation in the same range as or higher than the positive control (buffer blank in the presence of alpha-MSH) are considered to be agonist ligands. The rhenium metal ion-complexed peptide showing accumulation in the same range as the negative control (buffer blank in the absence of alpha-MSH) are ineffective at the test concentration if the result is similar to the positive control where alpha-MSH is also present in the assay. The rhenium metal ion-complexed peptide showing accumulation in the same range as the negative control are considered to be antagonists if there is inhibition in cAMP when alpha-MSH is present in the assay. Values above the positive control are due to potent agonism, experimental variance or synergistic agonistic effects of rhenium metal ion-complexed peptide and alpha-MSH. […]

[2] = biological target: T2, MC1-R (B-16 mouse melanoma cells) (Mus musculus, UniProt Q01727); assay: Competitive inhibition binding assay, 125I-NDP-alpha-MSH, B-16 mouse melanoma cell membranes; details: 0.4 nM 125I-NDP-alpha-MSH
T2 construct: B-16 mouse melanoma cells (containing MC1-R); endogenous in cells; host or cells: B-16 mouse melanoma cells
Procedure: as §1, §2

[3] = Conc. cut off 10 μM, hMC4-R membranes
[4] = 10 μM test compound + 20 nM alpha-MSH
[5] = Conc. cut off 10 μM, B-16 mouse melanoma cell membranes
[6] = Conc. cut off 1 μM, hMC4-R membranes
[7] = 1 μM test compound + 20 nM alpha-MSH
[8] = Conc. cut off 1 μM, B-16 mouse melanoma cell membranes
[9] = Conc. cut off 1 μM test peptide
[10] = Conc. cut off 10 μM test peptide

T2 sequence (Q01727 whole entry): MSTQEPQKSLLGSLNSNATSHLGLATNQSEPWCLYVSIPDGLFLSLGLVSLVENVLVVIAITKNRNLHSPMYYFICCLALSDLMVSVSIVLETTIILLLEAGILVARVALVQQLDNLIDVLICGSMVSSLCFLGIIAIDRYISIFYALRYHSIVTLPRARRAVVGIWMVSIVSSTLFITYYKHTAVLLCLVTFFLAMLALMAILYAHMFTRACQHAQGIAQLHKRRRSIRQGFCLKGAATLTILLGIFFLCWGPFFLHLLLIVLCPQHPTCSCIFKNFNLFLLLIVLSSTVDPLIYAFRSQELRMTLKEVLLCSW
T1 sequence (P32245 whole entry): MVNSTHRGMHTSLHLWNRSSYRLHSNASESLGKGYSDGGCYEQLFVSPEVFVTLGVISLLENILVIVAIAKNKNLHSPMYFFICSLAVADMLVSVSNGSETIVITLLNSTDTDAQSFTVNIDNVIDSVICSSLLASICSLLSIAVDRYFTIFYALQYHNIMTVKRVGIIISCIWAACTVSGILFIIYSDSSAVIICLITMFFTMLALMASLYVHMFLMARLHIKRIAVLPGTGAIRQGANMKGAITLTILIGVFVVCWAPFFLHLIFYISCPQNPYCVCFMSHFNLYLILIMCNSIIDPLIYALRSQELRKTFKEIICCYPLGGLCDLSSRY

| Substance | % Inhibition MC4-R (hMC4-R; [9]) | % Inhibition MC1-R (B-16) [2, 9] | other results |
| --- | --- | --- | --- |
| PL-838: metallopeptide of Table 1 (Ac-HFRCW-NH2; also: ReO[V] metal complex) |  |  | % Inhibition MC4-R (hMC4-R; [3]): 0%; cAMP Accumulation, Presence of α-MSH [1, 4]: 53 pmol/mL; cAMP Accumulation, Absence of α-MSH ([1]; 10 μM test compound): 2 pmol/mL; % Inhibition MC1-R (B-16) [2, 5]: 35% |
| PL-1265: metallopeptide of Table 1 (Ac-EHGRWC-NH2; also: ReO[V] metal complex) |  |  | % Inhibition MC4-R (hMC4-R; [6]): 67%; cAMP Accumulation, Presence of α-MSH [1, 7]: 127 pmol/mL; cAMP Accumulation, Absence of α-MSH ([1]; 1 μM test compound): 3 pmol/mL; % Inhibition MC1-R (B-16) [2, 8]: 34% |
| PL-1346: metallopeptide of Table 1 (Hydrocinnamoyl-HRCW-NH2; also: ReO[V] metal complex) |  |  | % Inhibition MC4-R (hMC4-R; [3]): 77%; cAMP Accumulation, Presence of α-MSH [1, 4]: 76 pmol/mL; cAMP Accumulation, Absence of α-MSH ([1]; 10 μM test compound): 3 pmol/mL; % Inhibition MC1-R (B-16) [2, 5]: 86% |
| PL-1348 (Ac-RHFCW-NH2; also: ReO[V] metal complex) |  |  | % Inhibition MC4-R (hMC4-R; [3]): 51%; % Inhibition MC1-R (B-16) [2, 5]: 57% |
| PL-1360 (Ac-RWFCH-NH2; also: ReO[V] metal complex) |  |  | % Inhibition MC4-R (hMC4-R; [3]): 62%; % Inhibition MC1-R (B-16) [2, 5]: 57% |
| PL-1364 (Ac-WFHCR-NH2; also: ReO[V] metal complex) |  |  | % Inhibition MC4-R (hMC4-R; [3]): 72%; % Inhibition MC1-R (B-16) [2, 5]: 74% |
| PL-1366 (Ac-HFWCR-NH2; also: ReO[V] metal complex) |  |  | % Inhibition MC4-R (hMC4-R; [3]): 64%; % Inhibition MC1-R (B-16) [2, 5]: 78% |
| PL-1394 (Ac-HRWCF-NH2; also: ReO[V] metal complex) |  |  | % Inhibition MC4-R (hMC4-R; [6]): 0%; % Inhibition MC4-R (hMC4-R; [3]): 59%; % Inhibition MC1-R (B-16) [2, 8]: 27%; % Inhibition MC1-R (B-16) [2, 5]: 84% |
| PL-1405 (Heptanoyl-FHCW-NH2; also: ReO[V] metal complex) |  |  | % Inhibition MC4-R (hMC4-R; [6]): 27%; % Inhibition MC1-R (B-16) [2, 8]: 20% |
| PL-1406 (Heptanoyl-RFHCW-NH2; also: ReO[V] metal complex) |  |  | % Inhibition MC4-R (hMC4-R; [6]): 42%; % Inhibition MC1-R (B-16) [2, 8]: 32% |
| PL-1412 (FHCW-NH2; also: ReO[V] metal complex) |  |  | % Inhibition MC4-R (hMC4-R; [6]): 54%; % Inhibition MC1-R (B-16) [2, 8]: 43% |
| PL-1416 (Ac-[Nle]AHFRCW-NH2; also: ReO[V] metal complex) |  |  | % Inhibition MC4-R (hMC4-R; [6]): 35%; % Inhibition MC1-R (B-16) [2, 8]: 85% |
| PL-1450 (Ac-[Nle]AHFRCW-NH2; also: ReO[V] metal complex) | 66% | 73% |  |
| PL-1478 (Ac-RFFCS-NH2; also: ReO[V] metal complex) | 21% | 28% |  |
| PL-1504 (Ac-RF[2Nal]NCF-NH2; also: ReO[V] complex) | 21% | 36% |  |
| PL-1507 (Ac-RFFNCF-NH2; also: ReO[V] metal complex) | 22% | 20% |  |
| PL-1509 (Ac-RFCFNAF-NH2; also: ReO[V] metal complex) | 30% | 19% |  |
| PL-1510 (Ac-RFFCNAF-NH2; also: ReO[V] metal complex) | 31% | 21% |  |
| PL-1511 (Ac-RFFNCAF-NH2; also: ReO[V] metal complex) | 26% | 21% |  |
| PL-1512 (Ac-RFFNACF-NH2; also: ReO[V] metal complex) | 24% | 20% |  |
| PL-1514 (Ac-RFFNFC-NH2; also: ReO[V] metal complex) | 30% | 28% |  |
| PL-1606 (Ac-[Nle]RA[Aic]CW-NH2; also: ReO[V] metal complex) | 63% | 44% |  |
| PL-1621 (Ac-[Nle]AH[Ac6c]RCW-NH2; also: ReO[V] complex) | 34% | 36% |  |
| PL-1649 (Ac-HGGCW-NH2; also: ReO[V] metal complex) |  |  | % Inhibition MC4-R (hMC4-R; [10]): 62%; % Inhibition MC1-R (B-16) [2, 10]: 19% |
| PL-1655 (Ac-HFRCW-NH2; also: ReO[V] metal complex) |  |  | % Inhibition MC4-R (hMC4-R; [10]): 51%; % Inhibition MC1-R (B-16) [2, 10]: 45% |
| PL-1751: metallopeptide of Table 1 (Ac-HXRWC-NH2; not fully specified (residue 2); printed as Ac-L-His-L-(N-2′naphthalene)Phe-L-Arg-L-Trp-L-Cys-NH2; also: ReO[V] complex) | 70% | 78% | cAMP Accumulation, Presence of α-MSH [1, 7]: 96 pmol/mL; cAMP Accumulation, Absence of α-MSH ([1]; 1 μM test compound): 71 pmol/mL |
| PL-1842: metallopeptide of Table 1 (Ac-[Nle]AHRFWC-NH2; also: ReO[V] complex) | 2% | 27% | cAMP Accumulation, Presence of α-MSH [1, 7]: 76 pmol/mL; cAMP Accumulation, Absence of α-MSH ([1]; 1 μM test compound): 25 pmol/mL |
| PL-1861 (Ac-FFC[4Abz]K-NH2; also: ReO[V] complex) | −14% | 0% |  |
| PL-1862 (Ac-FFC[3‑Abz]K-NH2; also: ReO[V] complex) | −7% | 17% |  |
| PL-1926 ({Bz′}-Arg-Trp-Cys-NH2; also: ReO[V] complex) | 7% | 25% |  |

Now from value to substance, other results behind:

| % Inhibition MC4-R (hMC4-R; [9]) | % Inhibition MC1-R (B-16) [2, 9] | Substance | other results |
| --- | --- | --- | --- |
| 29% | 45% | PL-1505 (Ac-RF[2Nal]NCF-NH2; also: ReO[V] complex) |  |
| 18% | 23% | PL-1513 (Ac-RFFNFC-NH2; also: ReO[V] metal complex) |  |
| 3% | 60% | PL-1595 (Ac-[Nle]AH[Aic]RCW-NH2; also: ReO[V] metal complex) |  |
| 43% | 14% | PL-1635 (Ac-[Nle]RA[Ac3c]CW-NH2; also: ReO[V] complex) |  |
| 38% | 20% | PL-1636 (Ac-[Nle]AH[Ac3c]RCW-NH2; also: ReO[V] complex) |  |
| −8% | 9% | PL-1859 (Ac-FFC[Tic]K-NH2; also: ReO[V] complex) |  |
| 0% | 6% | PL-1860 (Ac-FFC[Inp]K-NH2; also: ReO[V] complex) |  |
| 6% | 19% | PL-1863 (Ac-FFC[2Abz]K-NH2; also: ReO[V] complex) |  |
